These are literature values, as cited in US11820970B2, “High throughput protein-protein interaction screening in yeast liquid culture” (University of Washington, priority 2016, dated 2023).

Data set [1] addresses T1, BclW (Homo sapiens, UniProt Q92843).
T1 sequence (Q92843 1-193): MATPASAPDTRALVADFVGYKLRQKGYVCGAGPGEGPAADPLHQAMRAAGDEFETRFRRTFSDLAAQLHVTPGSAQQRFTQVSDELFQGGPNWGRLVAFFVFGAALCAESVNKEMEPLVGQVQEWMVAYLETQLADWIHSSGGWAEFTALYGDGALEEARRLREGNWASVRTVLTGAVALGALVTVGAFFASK
Conditions: binder vs BclW; known affinities; read-out: AFFINITY

Data set [2] addresses BclXL (Homo sapiens, UniProt Q07817). The conditions noted are these: binder vs BclXL; known affinities; read-out: AFFINITY
The target of data set [3] is T2, Bfl1 (Homo sapiens, UniProt Q16548).
T2 sequence (Q16548 1-175): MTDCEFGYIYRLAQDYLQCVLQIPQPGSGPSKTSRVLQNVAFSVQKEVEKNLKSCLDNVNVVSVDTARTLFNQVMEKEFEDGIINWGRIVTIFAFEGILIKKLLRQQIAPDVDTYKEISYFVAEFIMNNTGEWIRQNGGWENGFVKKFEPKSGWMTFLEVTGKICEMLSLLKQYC
The conditions noted are these: binder vs Bfl1; known affinities; read-out: AFFINITY

In data set [4] the target is Mcl1 (Homo sapiens, UniProt Q07820). The conditions noted are these: binder vs Mcl1; known affinities; read-out: AFFINITY
Sequence of Mcl1 (Q07820 whole entry, species assumed): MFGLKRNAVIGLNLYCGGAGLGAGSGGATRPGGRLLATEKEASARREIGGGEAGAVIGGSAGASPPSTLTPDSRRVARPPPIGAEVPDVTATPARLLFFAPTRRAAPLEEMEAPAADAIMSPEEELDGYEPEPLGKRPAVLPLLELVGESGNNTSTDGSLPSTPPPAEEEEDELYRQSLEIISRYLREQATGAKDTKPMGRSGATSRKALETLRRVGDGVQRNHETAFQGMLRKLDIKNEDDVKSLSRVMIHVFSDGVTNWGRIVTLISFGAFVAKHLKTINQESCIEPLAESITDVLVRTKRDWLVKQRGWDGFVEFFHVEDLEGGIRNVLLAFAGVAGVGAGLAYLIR
The target of data set [5] is T3, BclB (Homo sapiens, UniProt Q9HD36).
T3 sequence (Q9HD36 1-204): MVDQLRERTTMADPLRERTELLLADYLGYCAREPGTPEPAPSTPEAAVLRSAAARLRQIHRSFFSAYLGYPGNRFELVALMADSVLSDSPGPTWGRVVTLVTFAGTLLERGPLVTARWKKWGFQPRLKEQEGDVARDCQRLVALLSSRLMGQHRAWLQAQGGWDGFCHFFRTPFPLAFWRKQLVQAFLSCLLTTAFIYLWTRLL
The conditions noted are these: binder vs BclB; known affinities; read-out: AFFINITY

Data set [6] addresses Bcl2 (Homo sapiens, UniProt P10415). The conditions noted are these: binder vs Bcl2; known affinities; read-out: AFFINITY

Sequence of Bcl2 (P10415 whole entry, species assumed): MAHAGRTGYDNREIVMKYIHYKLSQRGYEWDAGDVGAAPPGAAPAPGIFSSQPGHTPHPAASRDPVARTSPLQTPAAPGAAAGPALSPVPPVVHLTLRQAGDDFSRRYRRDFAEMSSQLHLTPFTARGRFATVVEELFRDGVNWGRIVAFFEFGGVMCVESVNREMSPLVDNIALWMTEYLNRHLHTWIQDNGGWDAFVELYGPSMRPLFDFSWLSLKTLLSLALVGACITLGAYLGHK
Sequence of BclXL (Q07817 whole entry, species assumed): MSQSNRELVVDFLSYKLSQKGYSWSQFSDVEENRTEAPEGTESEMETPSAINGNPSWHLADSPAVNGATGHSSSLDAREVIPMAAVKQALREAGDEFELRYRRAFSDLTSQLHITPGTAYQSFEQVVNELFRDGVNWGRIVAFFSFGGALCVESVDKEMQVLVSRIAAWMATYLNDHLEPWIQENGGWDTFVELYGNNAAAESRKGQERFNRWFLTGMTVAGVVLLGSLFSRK

B1: X-CDP07: de novo (engineered) binding protein for Bcl2 family homologues, displayed as SAP (protein)
chain: ADPKKVLDKAKDRAENVVRKLKKELEELYKEARKLDLTQEMRDRIRLAAIAARIAAFGDIFHAIMEALEEARKLKKAGLVNSQQLDELKRRLEELDEEAAQRAEKLGKEFELKLEY
Take B1: the Kd in data set [1] is 14.9 nM; in data set [2], 0.59 nM; in data set [3] it was 7.05 µM; in data set [4] it was 17.4 nM; in data set [5], 107 nM; in data set [6] it was 3.81 nM.

B2: B-CDP01: de novo (engineered) binding protein for Bcl2 family homologues, displayed as SAP (protein)
chain: ADPKKVLDKAKDQAENRVRELKQELERLYKEARKLDLTQEMRRKLEWRYIAAMLKAIGDILNAIAQAENEADKLKKAGLVNSQQLDELRRRLEELAKEAARKAHDYGREFQLKLEY
Regarding B2, the Kd is 2010 nM in data set [1]; 20.2 nM in data set [2]; 0.518 µM in data set [3]; 0.46 nM in data set [4]; 8.33 nM in data set [5]; 17.3 nM in data set [6].
